The values below come from the nanobody polyreactivity screen of Harvey et al. (2022).

This data set can be described thus: yeast display, Sf9 membrane polyspecificity reagent, FACS + sequencing; frameworks hold sequencing errors. An outline of the steps: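 Genes from sorted yeast were amplified by colony PCR, read by MiSeq 2 × 250 sequencing and filtered on CDR length. These cells carried a synthetic nanobody library in Saccharomyces cerevisiae BJ5465 and were sorted by FACS into low and high (top ~1%) gates on anti-HA and streptavidin fluorescence. Polyreactivity is labelled according to the gate of origin.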
Turning to “QVQLVESGGGLVQAGGSLRLSCAASGFIFKPYAMGWYRQAPWKERELVAAITVNGGTTYYADSVKGRFTISRDNAKNTVYLQMNSLKPEDTAVYYCNRGRPGGPSWYHYDYWGQGTQVTVSS”, the “polyreactivity (PSR sort gate)” value is “high polyreactivity”.

For “QVQLVESGGRLVQAGGILRLSCAASGSTFDKNAMGWYRQAPGKERQLVAAINNGGGTTYYADSVKGRFTISRDNAKNTVYLQMNSLKPEDTAVYYCAAVGKAYWSDYQYRYYYWGQGTQVTVSS”, the “polyreactivity (PSR sort gate)” value was “low polyreactivity”.

On to “QVQLVESGGGLVQAGGGRRGSGAAAGSIFAWYAMGWYRQAPGTERELVATITWSGGSTYYADSVKGRFTISRDIAKNTVYLQMNSLKREDTAVYYCAAEVVGIWYDLWYQGDYWGQGTQVTVSS”, for which the “polyreactivity (PSR sort gate)” value is on record as “low polyreactivity”.

Take “QVHLVESGGAFVQAGGSLRLSCAASGRTFGYKAMGWYRQAPVNERELVAAITAGGSTNYADSVKGRFTISRDNAKKTVELQMNRLKPEDTAVYDSAARTYYVPYYYWGQGTQVTVSS”: the “polyreactivity (PSR sort gate)” value was “high polyreactivity”.

Consider “QVQLVESGGGLVQAGGSLRLSCAASGSIFGSYAMGWYRQAPGKERELVAAISYRGGRTYYADSVKGRFTISRDNAKNSVYLQMNSLKPEDTAVYYCNARARNSPPYDYWGQGTQVTVSS”, for which the “polyreactivity (PSR sort gate)” value is on record as “high polyreactivity”.

Regarding “QVQLVESGGRLVQAGGRLRLRSAASGFTFSRNAMGWYRQAPGKERELVAAIDSGGSTDYAVSVKGRFTISRDNAKNTVYLQMNSLKPADTAVYYCAKASSATRYVQLRQDYDYWGQGTQVTVSS”, the “polyreactivity (PSR sort gate)” value is “low polyreactivity”.

Turning to “QVQLVESGGGLVQAGGSLRLSCAASGSTFYYMGWSRQAPGKERELVAAITQSGGSTYYADSVKGRFTISRDNAKNTVYLQMNSLKPEDTAVYYCAARYASPRYKSKMDYWGQGTQVTVSS”, the “polyreactivity (PSR sort gate)” value is on record as “high polyreactivity”.

For the sequence “QVQLVDSGGGLVQAGGSLRLSCAASGSTSQKNAMGWYRQAPGKERELVAAISSGGSTYYADSVKGRFTISRDNAKNNVYLQLNSLKPEDTAVYNCAAKDLRGLGYWGQGTQVTVSS”, the “polyreactivity (PSR sort gate)” value is listed as “high polyreactivity”.

Turning to “QVQLVESGGGLVQAGGSLRLSCAASGFTFYRYAMGWYRPAPGKERELVAAITRSGSRTYYADSVKGRFTISRDNAKNTVYLQMNSLKPEDTAVYYCNTDGGDHPTARYGYWGQGTQVTVSS”, the “polyreactivity (PSR sort gate)” value is listed as “high polyreactivity”.

Take “QVQLVESGGGLVQAGGSLRLSCAASGIIFTYYAMGWYRQAPGKERELVAAISYRGGSTYYADSVKGRFTISRDNAKNTVYLQMNSLKPEDTAVYYCNARYFRHYDYWGQGTQVTVSS”: the “polyreactivity (PSR sort gate)” value is given as “high polyreactivity”.

Turning to “QVQLVESGGGLVQAGGSLRLSCAASGRTFAKYAMGWYRQAPGKERELVAAITRGDTTNYADSVKGRFTISRDNAKNTVYLQMNSLKPEDTGVYYCAATPDPPHTYEYWGQGTQVTVSS”, the “polyreactivity (PSR sort gate)” value was “low polyreactivity”.

“QVQLVESGGGLVQAGGSLRLSCAASGLTFYHYDMGWYRQAPGKERELVAAINFSAGITYYADSVKGRFTISRDNAKNTVYLQMNSLKPEDTAVYYCAAEPEWWWRGYGYWGQGTQVTVSS”: the “polyreactivity (PSR sort gate)” value is “low polyreactivity”.

Regarding “QVQLVESGGGLVQAGGSLRLSCAASGRTFITNAMGWSRPAPGKEREFVAAIRGGRGSTYYADSVKGRFTISRDNAKNTVYLQMNSVKPEDTAVYFCAARYWLFPRGYNYWGQGTQVTVSS”, the “polyreactivity (PSR sort gate)” value is “high polyreactivity”.

Take “QVQLVESGGGLVQAGGSLRLSCAASGRTFQYNTMGWYRQAPGKERELVAAISRSGGTTYYADSVKGRFTISRDNAKNTVYLQMNSLKPEDTAVYYCAAANSYTFRYGSWGQGTEVTVSS”: the “polyreactivity (PSR sort gate)” value is recorded as “high polyreactivity”.

As to “QVQLVESGGGLFQAGGSLRLICAASGSTFRFYAMGWYRQAPAKERELVAVIRSTGSTYYADSVKGRFTISRDNAKNTVYLQMYSLNPDDTAVYYCAAQNAWWSNGRSYDYWGQGTQVTVSS”, the “polyreactivity (PSR sort gate)” value is “low polyreactivity”.

Consider “QDQLVESGGGLVQAGGSLRLSCAASGSTIRANAMGWYRQATGKERELVAAITKNGGSTYYADSVKGRFTISRDNAKNTVYLQMNSLKPEDTAVYYCAARRSSRRPPYYYWGQGTQVTVSS”, for which the “polyreactivity (PSR sort gate)” value is reported as “high polyreactivity”.

Regarding “QVQLVESGGGLVQAGGSLRLSCAASGRTFTQYAMRWYRQAPGKERELVAAISWRGGSTYYADSVKGRFTISRDNAKNTVYLQMNSLKPEDTAVYYCAKRYFRGYPLYDYWGQGTQVTVSS”, the “polyreactivity (PSR sort gate)” value is reported as “high polyreactivity”.

For the sequence “QVQLVESGGGLVQAGGSLRISCAASGRTFECYAMGWSRQAPGKERELVAAISSGGSTYYADSVKGRFTISRDNAKNTVYLQMNSLKPEDTAVYYCNVLSQQRTARYDYWGQGTQVTVSS”, the “polyreactivity (PSR sort gate)” value was “low polyreactivity”.

“QVQLVESGGGLVQAGGSLRLSCAASGRIFLSNAMGRYRQAPRKDRELVAAISWTGGSTYYADSVKGRFTISRDNAKNTVYLQMNSLKPEDTAVYYCAASTVGQTYSYYVDTYDYWGQGTQVTVSS”: the “polyreactivity (PSR sort gate)” value is “low polyreactivity”.

Turning to “QVQLVESGGGLVQAGASLRLSCAASGRIFYLNVMGWYIQAPGKERELVAAISSSDDSTYYADSVKGRFTISRHYAKNTVYLQMNSLKPEDTAVYYCAAGYHQVQNYGDAYYWSELYSWGLGTQVTVSS”, the “polyreactivity (PSR sort gate)” value is recorded as “low polyreactivity”.

For the sequence “QVQLVESGGGLVQAGGSLRLSCAASGFISSRYAMGWYRQAPGKERELVASINWSGGSTYYADSVKGRFTISRDNAKNTVYLQMNSLKPEDTAVYYCNRVLDPTNKYYYWGQGTQVTVSS”, the “polyreactivity (PSR sort gate)” value is reported as “high polyreactivity”.

As to “QVELVESGGGLVQAGGSLRLSCAASGFTFNGTAMGWYRQAPGKDRELVAAMSRGGSPSYADSVKGRFTISRDNAKKTVYLPMNSLKPEATAVYYCAAVSYGRFRRYEYWVQGTQVTVSS”, the “polyreactivity (PSR sort gate)” value is “high polyreactivity”.

“QVQLVESGGGLVQAGGSLRLSCADSGRIIYLNAMGLYRQAPGKERELVAAITRSAASTHYADSVKGRFTISRDNAKNTVYLQMNSLKPEDTAVYYCNARGYPKSWRYSRGYEYWGQGTQVTVSS”: the “polyreactivity (PSR sort gate)” value is on record as “low polyreactivity”.

For the sequence “QVQLVESGGGLVQAGGSLRLSCAASGSIFSTYAMGWYRQAPGKERELVAAISGSGGSTYYADSVKGRFTISRDNAKNTVYLQMNSLKPEDTAVYYCNRLPYVSSAYVGLGYWGQGTQVTVSS”, the “polyreactivity (PSR sort gate)” value is listed as “high polyreactivity”.

Take “QVQLVESGGGLVQAGGSLRLSCAASGSIFAAYAKGWYIQAPGKERELVAAISDRGGSTYYADSVKGRFTISRDNSKITVYLQMNSLKPEDTAVYYCATSVFDVRGGPFYYWGQGTQVNVSS”: the “polyreactivity (PSR sort gate)” value is “high polyreactivity”.

“QVQLVESGAGLVQAGGSLRLSCAASGTIFSGNAMGWYRQAPGKESELVAAISRSGGSTYYADSVKGRFTISRDNAKNTVSLQKNSLKPEDTAVYYCAAYRTHGPPRAIRFDYWGQGSQVTVSS”: the “polyreactivity (PSR sort gate)” value was “high polyreactivity”.

In the case of “QVQLVESGGGLVQAGGSLRLSCAASGFTLRRYAMGWYRLAPGKERELVATITSGGTTDYADSVKGRFTISRDNAKNTVYLQMNSLKPEDTAVYYCAAYRRGAYYYWGQGTQVTVSS”, the “polyreactivity (PSR sort gate)” value was “high polyreactivity”.

In the case of “QVQHVESGGGLVQAGGSLRLSCAASGRTFDSYAMGWYRQAPGKERELVAAIYADSVKGRFTISRDNAKNTVYLQMNSLKPEDTAVYYCAAETYSGQTYLGEYDYWGQGTQVTVSS”, the “polyreactivity (PSR sort gate)” value was “low polyreactivity”.

“QVQLVESGGGLVQAGGSLRLSCAASGYIFTRNAMGWYRQAAGKERELVATISSRGGRTYYADSVKGRFTISRDNAKNTVYLQMNSLKPEDTAVYYCAATPWYRTRTYDYWGQGSQVTVSS”: the “polyreactivity (PSR sort gate)” value is “high polyreactivity”.

As to “QVQLVESGGGLVQAGGSLRLSCAASGFIFDRYAMGWYRQAPGKERELVAVISKSGGRTYYADSVKGRFTISRDHAKNTVYLQMNSLKPEDTAVYYCAAYYKSTYVTGDYWGQGTQVTVSS”, the “polyreactivity (PSR sort gate)” value is “high polyreactivity”.

In the case of “HDQLVESGGGFVQAGGSLRLICAASGSTFIGYAMGWYRQAPGKERELVADISWSGGRTYYADSVKGRFTISRDNEKNTVYLQMNSLKPEDTAVYYCAARGSGHTRSYYWGQGTQVTVSS”, the “polyreactivity (PSR sort gate)” value is listed as “high polyreactivity”.

For “QVQLVESGGGLVQAGGSLRLSCAASGNIFILNAMGWYRQAPGKERELVAAISTTGGSTYYADSVKGRFTISRDNAKNTVYLQMNSLKPEDTAVYYCAAYTYRYSTFYYWGQGTQVTVSS”, the “polyreactivity (PSR sort gate)” value is on record as “high polyreactivity”.

Take “QVQLVESGGGLVQAGGSLRLSCAASGFTCSTYAMGWYSQAPGKERELVAVISWNGGSTYYADSVKGRFTISRDNANNTVYLQMNSLKPEDTAVYYCDARGSFKQGYWGQGTQVTVSS”: the “polyreactivity (PSR sort gate)” value was “high polyreactivity”.

As to “QVQLQESGGCLVQAGGSLRLSCAASGTNLYSLGMGWSRQAPGKRREFVASITWGTTTNYAESENGRFTISRDNAKKTVYPQRNSLKPEDTAVYYCAAPPFGDSSYHYWGQATQVTVSS”, the “polyreactivity (PSR sort gate)” value is listed as “low polyreactivity”.

For “QVQLVESGGGLVQAGGSLRLSCAASGRTFAYNAMGWYRQAPGTERELVAAITGSGGRTYYADSVKGRFTLSRDNAKYTVYLQMNSLIPEDTAVYYCAVGLPSRYDYWGQGTQVTVSS”, the “polyreactivity (PSR sort gate)” value is listed as “low polyreactivity”.

Turning to “QVQLVESGGGLVQAGGSLRLSCAASGIIFSSNVMGWYRQAPGKERELVAAISRSGDRSYYADSVKGRFTISRDNAKITVYLQMNSLKPEDTAVYYCAGRVRVNVVSNGYWGQGTQVTVSS”, the “polyreactivity (PSR sort gate)” value is “high polyreactivity”.

For the sequence “QVQLVESGGGLVQAGGSLRLSCAASGSTSTQYAMGWYRQAPGKERELVAGITQSGGSTYYADSVKGRFTISRDNAKNTVYLQMNSLKPEDTAVYYCAAPPGYTGRYDYYYWGQGTQVTVSS”, the “polyreactivity (PSR sort gate)” value is given as “high polyreactivity”.

Consider “QVQLVESGGGLVQAGRSLRLSCAASGSTFWPNAMGWYRPAPGKERELVAAITSGGRTKYADSVKGRFTISRDNAKNTVYLQMNSLKPEDTAFYYCAKRKGDRGAWIHAYGWEDVDYWGQGTQVTVSS”, for which the “polyreactivity (PSR sort gate)” value is “low polyreactivity”.

As to “QVQLVESGGGLVQAGGSLRLSCAASGYIFATYAMGWYRQAPGKERELVAAISWSGGRTYYADSVKGRFTISRDNAKNTVYLQMNGLKPEVTAVYYCAAQSYSRMDYWGQGTQVTVSS”, the “polyreactivity (PSR sort gate)” value is recorded as “high polyreactivity”.

With “QVQLVESGGGLVQAGGSLRLSCAASGFIFTDYAMAWYRQAPGKERELVAAISYGGRTYYADSVKGRFTISRDNAKNTVYLQMNSLKPEDTAVYYCAAEKWDRYSSWSDYWGQGTQVTVSS”, the “polyreactivity (PSR sort gate)” value is recorded as “high polyreactivity”.

For the sequence “QVQLVESGGGLVQAGGSLRLSCAASGFIFTYYDMGWYRQAPGKERELVASISWDGGRTYYADSVKGRFTISRDNAKNTVYLQMNSLKPEDTAVYYCNADGSSYWYPVPLDGGDYWGQGTQVTVSS”, the “polyreactivity (PSR sort gate)” value was “low polyreactivity”.
